T1: human CEACAM5 on MKN-45 cells (human, UniProt P06731 35-685)
T1 construct: endogenous CEA of MKN-45 gastric adenocarcinoma cells, which also carry CD47 and CEACAM6; UniProtKB P06731; also called CD66e
T1 sequence: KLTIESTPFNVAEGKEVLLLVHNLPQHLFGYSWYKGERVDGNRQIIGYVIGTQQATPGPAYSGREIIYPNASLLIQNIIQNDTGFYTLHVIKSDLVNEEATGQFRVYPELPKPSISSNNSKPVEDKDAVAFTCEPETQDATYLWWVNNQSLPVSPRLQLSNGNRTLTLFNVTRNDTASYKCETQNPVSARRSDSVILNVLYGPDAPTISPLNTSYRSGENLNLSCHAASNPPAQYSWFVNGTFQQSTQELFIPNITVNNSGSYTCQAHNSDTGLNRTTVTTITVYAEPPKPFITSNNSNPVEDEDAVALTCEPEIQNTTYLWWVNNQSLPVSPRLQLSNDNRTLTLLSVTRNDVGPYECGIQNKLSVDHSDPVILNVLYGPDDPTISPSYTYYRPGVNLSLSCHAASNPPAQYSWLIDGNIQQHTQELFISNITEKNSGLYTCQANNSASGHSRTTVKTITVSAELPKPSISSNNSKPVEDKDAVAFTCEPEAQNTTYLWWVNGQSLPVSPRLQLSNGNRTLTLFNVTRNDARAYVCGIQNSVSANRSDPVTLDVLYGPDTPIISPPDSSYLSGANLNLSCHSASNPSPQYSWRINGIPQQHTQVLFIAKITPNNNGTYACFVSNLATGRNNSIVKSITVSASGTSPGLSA

T2: human CEACAM6 on MKN-45 cells (human, UniProt P40199 35-320)
T2 construct: whole, on cells
T2 sequence (looked up): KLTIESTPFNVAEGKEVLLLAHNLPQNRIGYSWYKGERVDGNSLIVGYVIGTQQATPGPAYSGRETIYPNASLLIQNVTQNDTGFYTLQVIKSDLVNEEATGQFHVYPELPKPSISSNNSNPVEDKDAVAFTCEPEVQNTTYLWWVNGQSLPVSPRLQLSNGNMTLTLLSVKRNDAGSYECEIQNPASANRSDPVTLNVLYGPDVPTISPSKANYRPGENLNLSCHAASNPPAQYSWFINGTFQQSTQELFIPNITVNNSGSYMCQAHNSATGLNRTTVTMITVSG


Key:
[1] = target: T3, human CD47 on MKN45 cells (human, UniProt Q08722 19-323); test: inhibition of SIRPα-mouseFc binding to CD47 on MKN45 cells, imaging (CX5); column 'SIRPα inhibition potency'
T3 construct: whole, on cells; also called IAP
Text: Experimental set-up for the measurement of the SIRPα inhibition potency data shown for bispecific antibodies of this invention (results see table 2):
The detection of bound SIRPα cell-based assay monitoring the interaction of soluble SIRPα with human CD47 expressed at the surface of MKN45 is used for the detection of the blocking activity. Dose-response experiments with bispecific antibodies according to the invention allow determination of an IC50 value.
MKN45 cancer cells, expressing both CD47 and CEACAM5, are stained with CFSE violet to allow the imaging system (CX5) to detect the cells. Briefly, 3,000 stained MKN45 cells per well are seeded in a 384 optical well plate (Costar) and incubated for 50 minutes with increased concentrations of bispecific antibodies of the invention (1.9 pM to 333 nM, in quadruplicates). Then, a fixe concentration of SIRPα—mouseFc premixed with anti-mouse IgG-Fc AF647 coupled antibody (Jackson Immunoresearch diluted 1:2000) is added at 50 ng/mL final. After an incubation of 3H30 plates are acquired with the imaging system (CX5, Thermofisher) and fluorescence signals emitted by the detected bound SIRPα is recorded by the software dedicated to the imaging system. Fluorescence signals are plotted according to the dose range tested and IC50 are calculated by the software (Prism, Graphpad).

[2] = target: T1, human CEACAM5 on MKN-45 cells; test: flow cytometry on MKN45 CEA+ cancer cells (also carry CD47)
Procedure: (§1) Cells are harvested, counted, checked for viability and resuspended at 3×10⁶ cells/ml in FACS buffer (PBS 2% BSA, 0.1% NaN3). 100 μl of the cell suspension are distributed in V-bottom 96-well plates (3×10⁵ cells/well). The supernatant is removed by centrifugation 3 minutes at 4° C., 1300 rpm. Increasing concentrations of the antibody according to the invention are then added into the wells and incubated for 15 minutes at 4° C. Cells are washed twice with cold FACS buffer and re-incubated for further 15 minutes at 4° C. with the PE (R-phycoerythrin)-conjugated mouse anti-human IgG Fc secondary antibody (SouthernBiotech, pre-diluted 1:100 in FACS buffer). Cells are washed twice with cold FACS buffer and resuspended in 300 μl FACS buffer with 1:15000-diluted SytoxBlue (Life Technologies). Fluorescence is measured using a Cytoflex […]. Binding curves and EC50 values are obtained and calculated using GraphPad Prism? software. In the same manner binding of MAB CEA or MAB CEA1 to MKN-45 cells can be tested.

[3] = target: T1, human CEACAM5 on MKN-45 cells; test: flow cytometry (FACS) on MKN-45 cells, which express CD47, CEACAM5 and CEACAM6; the legend says K2AC39 binds CEACAM5 and CEACAM6, and the curve does not separate the two
[4] = target: T2, human CEACAM6 on MKN-45 cells; test: legend of FIG. 21A, FACS on MKN-45 cells
Procedure: Binding to target cells (MKN-45) expressing CD47, CEACAM5 and CEACAM6 was assessed by FACS.
as §1

| Binder | IC50 [1] | EC50 [2] | EC50 (read off the curve) [3] | binding result [4] |
| --- | --- | --- | --- | --- |
| K2AC26 CEAxCD47 bispecific antibody (bispecific antibody, human IgG1, kappa, lambda, kappa-lambda body, human IgG1, common heavy chain; CEA arm light chain 2F7 (AC26)) heavy: not shown light 1: not shown light 2: QSALTQPASVSGSPGQSITISCTGTSSDVKYANAVSWYQQHPGKAPKLMIYSNSIRPSGVSNRFSGSKSGNTASLTISGLQAEDEADYYCSSYDPRGNLLIRVFGGGTKLTVLGQPKAAPSVTLFPPSSEELQANKATLVCLISDFYPGAVTVAWKADSSPVKAGVETTTPSKQSNNKYAASSYLSLTPEQWKSHRSYSCQVTHEGSTVEKTVAPTECS | 0.32 nM | 12.7 nM |  |  |
| K2AC39 CD47xCEA bispecific antibody (bispecific antibody, human IgG1, kappa, lambda, K2 = KA3 CD47 light chain, AC39 = 1B2 CEA light chain) heavy: not shown light 1: not shown light 2: QSVLTQPPSVSAAPGQKVTISCSGSSSEITASGVSWYQQLPGTAPKLLIYDNNKRPSGIPDRFSGSKSGTSATLGITGLQTGDEADYYCGTWDFPPSRFVFGGGTKLTVLGQPKAAPSVTLFPPSSEELQANKATLVCLISDFYPGAVTVAWKADSSPVKAGVETTTPSKQSNNKYAASSYLSLTPEQWKSHRSYSCQVTHEGSTVEKTVAPTECS |  |  | ~3 µg/mL | binds |

The remaining binders from weak to strong by IC50 [1], led by results:

| IC50 [1] | EC50 [2] | EC50 (read off the curve) [3] | binding result [4] | Binder |
| --- | --- | --- | --- | --- |
| 7 nM | 132 nM |  |  | K2AC18 CEAxCD47 bispecific antibody (bispecific antibody, human IgG1, kappa, lambda, kappa-lambda body, human IgG1, common heavy chain; CEA arm light chain 1A2 (AC18)) heavy: not shown light 1: not shown light 2: SYVLTQPPSVSVAPGKTARITCGGNGIGDASVHWYQQKPGQAPVLVIYSTTTRPSGIPERFSGSNSGNTATLTISRVEAGDEADYYCQVWDGFGPRHRAVFGGGTKLTVLGQPKAAPSVTLFPPSSEELQANKATLVCLISDFYPGAVTVAWKADSSPVKAGVETTTPSKQSNNKYAASSYLSLTPEQWKSHRSYSCQVTHEGSTVEKTVAPTECS |
| 0.72 nM | 14.5 nM |  |  | K2AC29 CEAxCD47 bispecific antibody (bispecific antibody, human IgG1, kappa, lambda, kappa-lambda body, human IgG1, common heavy chain; CEA arm light chain 2B5 (AC29)) heavy: not shown light 1: not shown light 2: QSALTQPASVSGSPGQSITISCTGTSSDVEFTNGVSWYQQHPGKAPKLMIYGFSSRPSGVSNRFSGSKSGNTASLTISGLQAEDEADYYCSSYDPPWHLLARVFGGGTKLTVLGQPKAAPSVTLFPPSSEELQANKATLVCLISDFYPGAVTVAWKADSSPVKAGVETTTPSKQSNNKYAASSYLSLTPEQWKSHRSYSCQVTHEGSTVEKTVAPTECS |
| 0.22 nM | 1.15 nM |  |  | K2AC10 CEAxCD47 bispecific antibody (bispecific antibody, human IgG1, kappa, lambda, kappa-lambda body, human IgG1, common heavy chain; CEA arm light chain 1D5 (AC10)) heavy: not shown light 1: not shown light 2: QSVLTQPPSVSGAPGQRVTISCTGSSSNIYANSNVHWYQQLPGTAPKLLIYSGSNRPSGVPDRFSGSKSGTSASLAITGLQAEDEADYYCQSYDPAHNLLTAVFGGGTKLTVLGQPKAAPSVTLFPPSSEELQANKATLVCLISDFYPGAVTVAWKADSSPVKAGVETTTPSKQSNNKYAASSYLSLTPEQWKSHRSYSCQVTHEGSTVEKTVAPTECS |

From patent publication US20210221908A1 (LAMKAP BIO BETA, published 2021)
